One substance from paper PMC11190312 can be followed below.

Test [1] deals with SARS-CoV-2 N protein expressed in bacteria (N-Bact) (SARS-CoV-2) (UniProt P0DTC9). The experiment in a line: SPR; single cycle kinetics, […]; global fit to 1:1 Langmuir model; […]. For orientation: SPR reads the build-up and loss of mass on a sensor chip optically.
The target of test [2] is SARS-CoV-2 N protein secreted by mammalian Expi293 cells (N-Expi) (SARS-CoV-2) (UniProt P0DTC9). The description is as above.

pKd: −log10 of the molar value.

“Recombinant human MASP-2 S618A, full-length, stabilized in proenzyme form”: in test [1], the pKd (usually the negative decadic logarithm of the Kd, by convention in mol/L) was 7.91; the koff (usually a measure of how fast the partners let go of each other) turned out to be 0.00015 s⁻¹; the kon (commonly the second-order rate constant of association) is 13900 M⁻¹ s⁻¹. In addition, in test [2], the pKd was 7.86, the koff was found to be 0.000172 s⁻¹ and the kon was 14400 M⁻¹ s⁻¹.
